The results in this text go back to PMC9855186, “Photoautotrophic Growth Rate Enhancement of Synechocystis sp. PCC6803 by Heterologous Production of 2-Oxoglutarate:Ferredoxin Oxidoreductase from Chlorobaculum tepidum” (Biology, 2022).

Substrate in data set [1]: CC(C)(COP(=O)(O)OP(=O)(O)OC[C@H]1O[C@@H](n2cnc3c(N)ncnc32)[C@H](O)[C@@H]1OP(=O)(O)O)[C@@H](O)C(=O)NCCC(=O)NCCSC(=O)CCC(=O)O
Briefly: coupled Fd/FNR assay, NADPH decrease at A340, Michaelis-Menten fit. Type of data set: biochemical, Chlorobaculum tepidum. Conditions: carboxylation, 50 mM sodium bicarbonate fixed, 0.15 mM NADPH, 0.1 μM FNR, 1 μM Synechocystis Fd (slr1382), 1 mM MgCl2, 1 mM DTT, 1 mM TPP, pH 7.5, 30 °C, anaerobic, kcat per αβ-protomer. An excerpt: coupled Fd/FNR assay, NADPH decrease at A340, Michaelis-Menten fit on CtOGOR (2-oxoglutarate:ferredoxin oxidoreductase)

Substrate in data set [2]: O=C(O)CCC(=O)C(=O)O
Briefly: coupled Fd/FNR assay, NADP+ reduction at A340, Michaelis-Menten fit. The class given is biochemical, Chlorobaculum tepidum. The conditions noted are these: decarboxylation, 0.5 mM CoA fixed, 0.15 mM NADP+, 0.1 μM FNR, 1 μM Synechocystis Fd (slr1382), 1 mM MgCl2, 1 mM DTT, 1 mM TPP, pH 7.5, 30 °C, anaerobic, kcat per αβ-protomer. An excerpt: (§1) coupled Fd/FNR assay, NADP+ reduction at A340, Michaelis-Menten fit on CtOGOR (2-oxoglutarate:ferredoxin oxidoreductase)

Substrate in data set [3]: CC(C)(COP(=O)(O)OP(=O)(O)OC[C@H]1O[C@@H](n2cnc3c(N)ncnc32)[C@H](O)[C@@H]1OP(=O)(O)O)[C@@H](O)C(=O)NCCC(=O)NCCS
The data set is described as above. Conditions: decarboxylation, 5 mM 2-oxoglutarate fixed, 0.15 mM NADP+, 0.1 μM FNR, 1 μM Synechocystis Fd (slr1382), 1 mM MgCl2, 1 mM DTT, 1 mM TPP, pH 7.5, 30 °C, anaerobic, kcat per αβ-protomer. The class given is biochemical, Chlorobaculum tepidum.
Source text: as §1

Substrate in data set [4]: O=C(O)CCC(=O)C(=O)O
In words: NADPH decrease at A340, Michaelis-Menten fit. The class given is biochemical, Synechocystis sp. PCC 6803. Conditions: carboxylation, 50 mM sodium bicarbonate fixed, 0.15 mM NADPH, 10 mM HEPES pH 8.0, 40 mM MgCl2.

Substrate in data set [5]: O=C(O)C[C@H](C(=O)O)[C@@H](O)C(=O)O
Briefly: NADP+ reduction at A340, Michaelis-Menten fit. The conditions noted are these: decarboxylation, 0.15 mM NADP+, 10 mM HEPES pH 8.0, 40 mM MgCl2. Type of data set: biochemical, Synechocystis sp. PCC 6803.

B1: CtOGOR (2-oxoglutarate:ferredoxin oxidoreductase) (Chlorobaculum tepidum TLS) (protein)
chain 1: MSDTVILNNNDMVISKTNVSVLFAGDSGDGMQLTGTQFANTVAVYGSDLNTFPNFPSEIRPPAGTVAGVSGFQLQFGTTGVYTPGAKFDVMIAMNAAALKANLKNLHHGGIIIADTDGFDAKNLNLAGYGETNNPLEDGTLTDYTVFKIPVISLTRQALADTGLSTKIIDRCKNMFVLGVLYWLYSLPLETTIEALQSKFKNKQDIAEANIKAVKAGYNFGDETEMFSQHGRFCVPPAQKKKGVYRRVTGNEASAIGLAAAAQKAGLELFLGSYPITPASEILQTLAGLKKWGVKTFQAEDEIAGILTSIGAAYGGALAATNTSGPGLALKTEGMGLAVILELPLVIINVMRGGPSTGLPTKPEQSDLLMAMYGRHGEAPMPVIAAMSPVDCFYAAYEAAKIAVEYMTPVLCLTDGYLALSSEPMLVPSPDELASITPMFSPERKADDPPYLPYKRDERCVRPWGIPGTPGLEHRIGGLEKQNETGHVSHDPENHALMTRLRAEKVAKVADIIPDLTIDNGPEKGDLLVLGWGSTYGAIKKAVEQAREGGLDVAHAHLRYINPFPKNLGAMLGNFKKVLIPENNCGQLLSLIRDKFLIEPVGFSKVQGLPFNEMEIEEKITDILKEL
chain 2: MTDTHTCLTAKDFTSNQEPKWCPGCGDFMVLQQLKNAMAELCLKTEEVVVVSGIGCSSRLPYYINTYGVHGIHGRAMAMASGLKVARPDLSVWVGTGDGDALSIGGNHYIHTVRRNLDINVVLFNNEIYGLTKGQYSPTSKVGLRTVTSPTGVVDYPINTIALTLGAGGTFVARVMDRDGKLMKEIFKRAHNHKGTSIVEIYQNCPIFNDGAFRAFSDKERKDDTTLYLEQGQPLVFGANGSKGIYLDGFKPTVIDLEKSGVSKDDLWIHDENDLIKANILSRFFDDPNSTEEFLPRPFGIFYVEDRFTYEQALSAQIDKAQEKGEGTLEELLAGNSTWTIN
notes: heterotetramer (alpha-beta)2, 220 kDa; N-terminal His6-KorA and C-terminal strep-tagged KorB, tags kept; codon-optimised genes; E. coli BL21(DE3); Fe-S clusters and TPP reconstituted
A word on the Km: it is the concentration of substrate that gives half-maximal velocity. The term kcat denotes the maximal rate divided by the concentration of active sites. The kcat/Km is the second-order rate constant that governs catalysis at low substrate concentration. For the protein B1, in data set [1], the Km turned out to be 24 ± 2 µM, the kcat worked out at 2.6 ± 0.1 s⁻¹ and the kcat/Km was 110000 ± 3500 M⁻¹ s⁻¹. In data set [2], the Km came to 1689 ± 92 µM, the kcat stood at 8.4 ± 0.1 s⁻¹ and the kcat/Km turned out to be 5000 ± 100 M⁻¹ s⁻¹. In data set [3], the Km came to 42 ± 15 µM, the kcat was 8.1 ± 0.2 s⁻¹ and the kcat/Km worked out at 192000 ± 2400 M⁻¹ s⁻¹.

B2: Icd (isocitrate dehydrogenase) (Synechocystis sp. PCC 6803 substr. Kazusa) (protein)
chain: MYEKLQPPSVGSKITFVAGKPVVPNDPIIPYIRGDGTGVDIWPATELVINAAIAKAYGGREEINWFKVYAGDEACELYGTYQIFPEDTLTAIKEYGVAIKGPLTTPVGGGIRSLNVALRQIFDLYTCVRPCRYYPGTPSPHKTPEKLDIIVYRENTEDIYLGIEWAEGTEGAKKLIAYLNDELIPTTPALGKKQIRLDSGIGIKPISKTGSQRLVRRAILHAKRLPKAKQMVTLVHKGNIMKFTEGPFRDWGYELATTEFRAECVTERESWICGNKESNPDLTIEANAHMIDPGYDTLTEEKQAVIKQEVEQVLNSIWESHGNGQWKEKVMVNDRIADSIFQQIQTRPDEYSILATMNLNGDYLSDAAAAVVGGLGMGPGANIGDSAAIFEATHGTAPKHAGLDRINPGSVILSGVMMLEFMGWQEAADLIKKGIGAAIANREVTYDLARLMEPKVDKPLKCSEFAQAIVSHFDD
In the case of B2, the Km was determined as 1003 µM in data set [4] and 121 ± 13 µM in data set [5].
